Data from patent US20210147536A1 (MAB VENTURE BIOPHARM, published 2021).

How the values were obtained:
[1] = target: T1, human LAG-3 on the cell surface (human, UniProt P18627 23-525); assay: flow cytometry on activated human CD4+ T cells expressing LAG-3, PE anti-human antibody
T1 construct: whole, on cells; also called cells expressing the human LAG-3
T1 sequence (looked up): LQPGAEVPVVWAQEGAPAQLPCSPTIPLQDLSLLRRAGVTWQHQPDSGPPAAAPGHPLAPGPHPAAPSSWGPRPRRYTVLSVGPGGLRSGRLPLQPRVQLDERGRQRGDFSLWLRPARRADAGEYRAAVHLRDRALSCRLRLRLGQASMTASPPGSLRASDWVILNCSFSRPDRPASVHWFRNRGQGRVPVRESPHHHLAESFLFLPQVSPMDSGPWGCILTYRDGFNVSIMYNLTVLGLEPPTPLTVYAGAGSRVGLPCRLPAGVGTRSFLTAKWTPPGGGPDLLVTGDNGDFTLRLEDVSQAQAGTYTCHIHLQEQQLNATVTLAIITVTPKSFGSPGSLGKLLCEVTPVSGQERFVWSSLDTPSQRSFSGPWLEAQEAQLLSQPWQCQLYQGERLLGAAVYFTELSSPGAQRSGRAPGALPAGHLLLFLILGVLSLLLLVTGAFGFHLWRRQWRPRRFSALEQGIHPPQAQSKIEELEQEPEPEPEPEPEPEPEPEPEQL

[2] = target: T2, human LAG-3-6*His tag recombinant fusion protein (human, UniProt P18627 23-450, biotin-labelled in panning and in Example 9); assay: BLI (Octet Red96), biotinylated hLAG-3-6*his on SA biosensor, antibody 100 µg/mL in solution, 1:2 binding model
T2 construct: Bought protein; also called hLAG-3-6*his tag recombinant protein; human LAG-3-his tag recombinant fusion protein
T2 sequence: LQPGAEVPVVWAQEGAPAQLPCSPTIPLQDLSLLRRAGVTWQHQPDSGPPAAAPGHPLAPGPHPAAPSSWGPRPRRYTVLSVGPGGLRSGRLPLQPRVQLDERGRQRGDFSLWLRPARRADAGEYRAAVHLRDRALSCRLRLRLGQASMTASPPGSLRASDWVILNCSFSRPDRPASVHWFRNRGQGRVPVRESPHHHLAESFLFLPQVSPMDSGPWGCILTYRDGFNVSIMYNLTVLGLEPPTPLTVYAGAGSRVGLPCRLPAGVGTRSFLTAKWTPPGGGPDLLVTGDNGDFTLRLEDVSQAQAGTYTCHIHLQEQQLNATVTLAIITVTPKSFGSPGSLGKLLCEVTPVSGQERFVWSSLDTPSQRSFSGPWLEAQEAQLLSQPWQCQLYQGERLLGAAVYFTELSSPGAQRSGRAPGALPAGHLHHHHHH

[3] = target: T1, human LAG-3 on the cell surface; assay: cell-based or functional assay
[4] = target: T2, human LAG-3-6*His tag recombinant …; assay: BLI Octet Red96, MV705-3 on AHC sensor, human LAG-3-6*His at 1000 nM, 1:1 model
[5] = target: T2, human LAG-3-6*His tag recombinant …; assay: BLI (Octet Red96), biotinylated hLAG-3-6*his on SA biosensor, antibody 100 µg/mL in solution, 1:2 binding model; remark: listed apart in the source
[6] = target: T3, recombinant Macaca fascicularis LAG-3-6*His tag fusion protein (Macaca fascicularis); assay: ELISA, antibody coated at 1 µg/ml, Macaca fascicularis LAG-3-6*His titrated, anti-His HRP
T3 construct: Bought protein; also called Macaca fascicularis LAG-3 antigen

[7] = target: T2, human LAG-3-6*His tag recombinant …; assay: ELISA, antibody coated at 1 µg/ml, human LAG-3-6*His titrated, anti-His HRP; range of three experiments
[8] = target: T2, human LAG-3-6*His tag recombinant …; assay: ELISA as in Example 4 (antibody coated, human LAG-3-6*His titrated); N = 5
[9] = target: T2, human LAG-3-6*His tag recombinant …; assay: BLI Octet Red96, MV705-3 on AHC sensor, human LAG-3-6*His at 500 nM, 1:1 model
[10] = target: T2, human LAG-3-6*His tag recombinant …; assay: ELISA, human LAG-3-6*His coated at 1 µg/ml, IgG4 titrated, anti-hIgG HRP
[11] = target: T2, human LAG-3-6*His tag recombinant …; assay: BLI (Octet Red96), biotinylated hLAG-3-6*his on SA biosensor, antibody 100 µg/mL in solution, 1:2 binding model; remark: listed apart in the source
[12] = target: T2, human LAG-3-6*His tag recombinant …; assay: as above; remark: listed apart in the source
[13] = target: T2, human LAG-3-6*His tag recombinant …; assay: SPR BIAcore T200, antibody on CM5 chip, human LAG-3-6*His 0.352 to 45 nM as analyte
[14] = target: T1, human LAG-3 on the cell surface; assay: cell-based or functional assay; remark: listed apart in the source

B1: anti-human LAG-3 full human monoclonal antibody MV705-3 (antibody, human IgG4, V domains shown)
VH: EVQLLESGAEVKKPGASVKVSCKASGYTFTSYGISWVRQAPGQGLEWMGWISAYNGNTNYAQKLQGRVTMTTDTSTSTAYMELRSLRSDDTAVYYCARDGWWELLRPDDAFDIWGQGTTVTVSS
VL: QLVLTQSPSVSVSPGQTASITCSGDKLGDKYAYWYQQKPGQAPVLVIYYDSDRPSGIPERFSGSNSGNTATLTISRVEAGDEADYYCQVWDSSSDQVVFGGGTQLTVLG
notes: Full IgG4 with lambda light chain; also called MV705-3(DD + DD)
- EC50 [1]: 0.0019 µg/mL
- Kd [2]: 3.04 nM
- koff [2]: 0.000373 s⁻¹
- kon [2]: 122000 M⁻¹ s⁻¹
- EC50, ability to activate T cells in vitro (LAG3/NFAT Reporter-Jurkat) [3]: 0.13 µg/mL
- Kd [4]: 1.79 nM
- koff [4]: 0.000106 s⁻¹
- kon [4]: 59300 M⁻¹ s⁻¹
- Kd [5]: 4.83 nM
- koff [5]: 0.000442 s⁻¹
- kon [5]: 91600 M⁻¹ s⁻¹
- EC50 [6]: 0.11 µg/mL
- EC50 [7]: 0.04 to 0.1 µg/mL
- EC50 [8]: 0.039 µg/mL
- Kd [9]: 2.5 nM
- koff [9]: 9.95e-05 s⁻¹
- kon [9]: 39900 M⁻¹ s⁻¹
- EC50 [10]: 0.364 µg/mL
- Kd [11]: 3.04 nM
- koff [11]: 0.000373 s⁻¹
- kon [11]: 122000 M⁻¹ s⁻¹
- Kd [12]: 4.83 nM
- koff [12]: 0.000442 s⁻¹
- kon [12]: 91600 M⁻¹ s⁻¹
- Kd [13]: 0.00851 nM
- koff [13]: 9.18e-07 s⁻¹
- kon [13]: 108000 M⁻¹ s⁻¹
- EC50 of NFAT reporter gene induction (bio-glo luciferase), LAG3/NFAT Reporter-Jurkat + Raji cells + superantigen [14]: 0.04 µg/mL
